Data on 2 molecules can be found in paper PMC3024981, “It Takes Two to Tango: Defining an Essential Second Active Site in Pyridoxal 5′-Phosphate Synthase” (PLoS ONE, 2011).

Substitutions are numbered along the chain they refer to. Numbers in names are those of the source.

The target of one experiment is T1, Pdx1 (Bacillus subtilis, UniProt P37527).
T1 construct: gene pdxS; full-length Pdx1 alone, native (untagged) from pETBsPdx1; dodecamer
In words: ESI-MS (+[…] Da after NaBH4 reduction), tryptic peptide MALDI-TOF/TOF. It is filed as biochemical. As to conditions: covalent Schiff base at K149 (P2 site); PLP made de novo from R5P, DL-G3P and ammonium sulfate.

In experiment [1] the target is T2, Pdx1 R288K (Bacillus subtilis), native (untagged) (Bacillus subtilis, UniProt P37527 1-294, R288K).
T2 construct: Pdx1, synthase subunit of PLP synthase, Bacillus subtilis; also called Pdx1 R288K mutein; source: site directed mutagenesis of Pdx1; expressed and purified as described by Raschle et al. (2005)
T2 sequence: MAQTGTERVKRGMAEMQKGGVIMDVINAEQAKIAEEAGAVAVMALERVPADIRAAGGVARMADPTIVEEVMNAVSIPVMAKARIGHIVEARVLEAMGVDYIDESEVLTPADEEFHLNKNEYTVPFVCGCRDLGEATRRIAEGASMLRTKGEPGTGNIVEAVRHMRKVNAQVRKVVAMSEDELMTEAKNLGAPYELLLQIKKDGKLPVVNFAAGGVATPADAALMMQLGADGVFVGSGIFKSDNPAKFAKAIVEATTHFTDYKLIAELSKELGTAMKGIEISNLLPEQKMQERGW
Description: other fluorescence titration; intrinsic protein fluorescence of Pdx1 titrated with increasing concentrations of Pdx2 H170N in the presence of glutamine, without R5P; decrease in fluorescence intensity; done as described in ref. 21. As to conditions: both partners purified.

Experiment [2] deals with T3, Pdx1 wild type (Bacillus subtilis), native (untagged) (Bacillus subtilis, UniProt P37527 1-294).
T3 construct: Pdx1, synthase subunit of PLP synthase, Bacillus subtilis; construct pETBsPdx1 of Raschle et al. (2005); Native means untagged; Dodecamer by SEC-MALS; also called BsPdx1 wild type; PLP synthase synthase subunit; source: construct pETBsPdx1; expressed and purified as described by Raschle et al. (2005); copies: 12
T3 sequence: T2 sequence with K288R
The description is as above. Conditions: both partners purified.

The target of experiment [3] is T4, Pdx1 R288A (Bacillus subtilis), native (untagged) (Bacillus subtilis, UniProt P37527 1-294, R288A).
T4 construct: Pdx1, synthase subunit of PLP synthase, Bacillus subtilis; also called Pdx1 R288A mutein; source: site directed mutagenesis of Pdx1; expressed and purified as described by Raschle et al. (2005); copies: 12
T4 sequence: T2 sequence with K288A
The experiment is described as above. Conditions: both partners purified.

T1 sequence (P37527 2-294): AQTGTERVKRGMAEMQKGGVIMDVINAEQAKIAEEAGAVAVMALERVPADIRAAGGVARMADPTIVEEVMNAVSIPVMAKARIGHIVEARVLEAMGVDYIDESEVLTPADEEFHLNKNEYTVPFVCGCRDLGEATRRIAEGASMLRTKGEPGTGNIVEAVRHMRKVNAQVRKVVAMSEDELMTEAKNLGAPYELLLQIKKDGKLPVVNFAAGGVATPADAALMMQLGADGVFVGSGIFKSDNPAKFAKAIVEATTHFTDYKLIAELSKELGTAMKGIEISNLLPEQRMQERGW

Regarding `Cc1ncc(COP(=O)(O)O)c(C=O)c1O` [pyridoxal 5′-phosphate], the “ESI-MS (+231 Da after NaBH4 reduction), tryptic peptide MALDI-TOF/TOF” value on Pdx1 is “demonstrate that PLP is covalently bound to Pdx1”.

B1: Pdx2 H170N (Bacillus subtilis), catalytically inert mutein (enzyme, UniProt P37528 1-196, looked up)
chain: MLTIGVLGLQGAVREHIHAIEACGAAGLVVKRPEQLNEVDGLILPGGESTTMRRLIDTYQFMEPLREFAAQGKPMFGTCAGLIILAKEIAGSDNPHLGLLNVVVERNSFGRQVDSFEADLTIKGLDEPFTGVFIRAPHILEAGENVEVLSEHNGRIVAAKQGQFLGCSFNPELTEDHRVTQLFVEMVEEYKQKALV
notes: Pdx2, glutaminase subunit of PLP synthase, Bacillus subtilis; It was used together with glutamine (Michaelis complex of Pdx2 H170N and glutamine); also called Pdx2-His6 H170N; Pdx2 H170N mutein; source: construct Pdx2-His6 H170N of Strohmeier et al. (2006); expressed and purified as described by Raschle et al. (2005)
With B1, the binding result in experiment [1], in experiment [2] and in experiment [3] was “binds” throughout.
